Experimental data published in US20250152743A1, “SYNPOPTOSIS CIRCUITS FOR PROGRAMMABLE CELL DEATH CONTROL” (California Institute of Technology, priority 2023, published 2025).

B1: AND-gated caspase-3: TEVP-activatable caspase-3 fused to a TVMVP-removable degron; SEQ ID NO: 23 (protein)
chain: MGSENTENSVDSKSIKNLEPKIIHGSESMDSGISLDNSYKMDYPEMGLCIIINNKNFHKSTGMTSRSGTDVDAANLRETFRNLKYEVRNKNDLTREEIVELMRDVSKEDHSKRSSFVCVLLSHGEEGIIFGTNGPVDLKKITNFFRGDRCRSLTGKPKLFIIQACRGTELDCGIETENLYFQSGVDDDMACHKIPVEADFLYAYSTAPGYYSWRNSKDGSWFIQSLCAMLKQYADKLEFMHILTRVNRKVATEFESFSFDATFHAKKQIPCIVSMLTKELYFYHGGSGLETVRFQSGSGSISLIAALAVDYVIGMENAMPWNLPADLAWFKRNTLNKPVIMGRHTWESIGRPLPGRKNIILSSQPSTDDRVTWVKSVDEAIAACGDVPEIMVIGGGRVIEQFLPKAQKLYLTHIDAEVEGDTHFPDYEPDDWESVFSEFHDADAQNSHSYCFEILERR
B2: OR-gated caspase-3: tandem TEVP and TVMVP cleavage sites at the inter-subunit linker of caspase-3; SEQ ID NO: 24 (protein)
chain: MGSENTENSVDSKSIKNLEPKIIHGSESMDSGISLDNSYKMDYPEMGLCIIINNKNFHKSTGMTSRSGTDVDAANLRETFRNLKYEVRNKNDLTREEIVELMRDVSKEDHSKRSSFVCVLLSHGEEGIIFGTNGPVDLKKITNFFRGDRCRSLTGKPKLFIIQACRGTELDCGIETENLYFQSETVRFQSGVDDDMACHKIPVEADFLYAYSTAPGYYSWRNSKDGSWFIQSLCAMLKQYADKLEFMHILTRVNRKVATEFESFSFDATFHAKKQIPCIVSMLTKELYFYH
B3: caspase-3 variant designed to activate in the presence of Input 1 and the absence of Input 2: TEVP-removable degron on small subunit, TVMVP-activatable N-degron on large subunit (SEQ ID NOs: 25, 26) (protein)
chain 1: MGSETVRFQYHKSGAWKLPVSLVKEQLEKKLQALEKKLAQLEWKNQALEKKLAQENTENSVDSKSIKNLEPKIIHGSESMDSGISLDNSYKMDYPEMGLCIIINNKNFHKSTGMTSRSGTDVDAANLRETFRNLKYEVRNKNDLTREEIVELMRDVSKEDHSKRSSFVCVLLSHGEEGIIFGTNGPVDLKKITNFFRGDRCRSLTGKPKLFIIQACRGTELDCGIETD
chain 2: MGSSGVDDDMACHKIPVEADFLYAYSTAPGYYSWRNSKDGSWFIQSLCAMLKQYADKLEFMHILTRVNRKVATEFESFSFDATFHAKKQIPCIVSMLTKELYFYHGGSGALKKELQANKKELAQLKWELQALKKELAQGGSGLENLYFQSGSGSISLIAALAVDYVIGMENAMPWNLPADLAWFKRNTLNKPVIMGRHTWESIGRPLPGRKNIILSSQPSTDDRVTWVKSVDEAIAACGDVPEIMVIGGGRVIEQFLPKAQKLYLTHIDAEVEGDTHFPDYEPDDWESVFSEFHDADAQNSHSYCFEILERR
B4: Caspase3_v2.1: nHalo-tevs-Casp3te-tevs-cHalo-CAAX; SEQ ID NO: 44 (protein)
chain: MEIGTGFPFDPHYVEVLGERMHYVDVGPRDGTPVLFLHGNPTSSYVWRNIIPHVAPGSENLYFQSGSENTENSVDSKSIKNLEPKIIHGSESMDSGISLDNSYKMDYPEMGLCIIINNKNFHKSTGMTSRSGTDVDAANLRETFRNLKYEVRNKNDLTREEIVELMRDVSKEDHSKRSSFVCVLLSHGEEGIIFGTNGPVDLKKITNFFRGDRCRSLTGKPKLFIIQACRGTELDCGIETENLYFQSGVDDDMACHKIPVEADFLYAYSTAPGYYSWRNSKDGSWFIQSLCAMLKQYADKLEFMHILTRVNRKVATEFESFSFDATFHAKKQIPCIVSMLTKELYFYHSTGSENLYFQSGSTHRCIAPDLIGMGKSDKPDLGYFFDDHVRFMDAFIEALGLEEVVLVIHDWGSALGFHWAKRNPERVKGIAFMEFIRPIPTWDEWPEFARETFQAFRTTDVGRKLIIDQNVFIEGTLPMGVVRPLTEVEMDHYREPFLNPVDREPLWRFPNELPIAGEPANIVALVEEYMDWLHQSPVPKLLFWGTPGVLIPPAEAARLAKSLPNCKAVDIGPGLNLLQEDNPDLIGSEIARWLSTLEISGGSSGGGGRSKLNPPDESGPGCMSCKCVLS
B5: Caspase3_v2.2: nCasp3-tevs-nHalo-tevs-cHalo-tevs-cCasp3-CAAX; SEQ ID NO: 45 (protein)
chain: MENTENSVDSKSIKNLEPKIIHGSESMDSGISLDNSYKMDYPEMGLCIIINNKNFHKSTGMTSRSGTDVDAANLRETFRNLKYEVRNKNDLTREEIVELMRDVSKEDHSKRSSFVCVLLSHGEEGIIFGTNGPVDLKKITNFFRGDRCRSLTGKPKLFIIQACRGTELDCGIETENLYFQSEIGTGFPFDPHYVEVLGERMHYVDVGPRDGTPVLFLHGNPTSSYVWRNIIPHVAPENLYFQSTHRCIAPDLIGMGKSDKPDLGYFFDDHVRFMDAFIEALGLEEVVLVIHDWGSALGFHWAKRNPERVKGIAFMEFIRPIPTWDEWPEFARETFQAFRTTDVGRKLIIDQNVFIEGTLPMGVVRPLTEVEMDHYREPFLNPVDREPLWRFPNELPIAGEPANIVALVEEYMDWLHQSPVPKLLFWGTPGVLIPPAEAARLAKSLPNCKAVDIGPGLNLLQEDNPDLIGSEIARWLSTLEISENLYFQSGVDDDMACHKIPVEADFLYAYSTAPGYYSWRNSKDGSWFIQSLCAMLKQYADKLEFMHILTRVNRKVATEFESFSFDATFHAKKQIPCIVSMLTKELYFYHSTGGSSGGGGRSKLNPPDESGPGCMSCKCVLS

Legend:
[1] = tested on: co-culture of engineered HEK cells that stably express Input 1, Input 2, or both, and wildtype cells; experiment: Synpoptosis gates in co-culture of four input-state cell lines, Annexin flow cytometry; format: cell-based, human; settings: Input 1 TEVP (Cherry), Input 2 TVMVP (Citrine)
Protocol: As a proof of concept for combinatorial targeting, the synpoptosis gates were tested in a co-culture of engineered HEK cells that stably express Input 1, Input 2, or both, and wildtype cells that express neither. Input 1 with Cherry and Input 2 with Citrine were co-expressed, such that the two fluorescent protein profiles represented input patterns (FIG. 4C, Quadrant layout). The co-culture of the four cell lines were then transfected with the synthetic apoptosis gates to analyze their killing specificity. Transfections of no caspase-3 (FIG. 4C, Mock) and active caspase-3 (FIG. 4C, Indiscriminate) were used to establish background and ceiling apoptosis levels, respectively. […] Similar killing specificities were observed when the synthetic pyroptosis gates were transfected into the co-culture (FIG. 4D).
For experiments that required stable transgene expression, stable cell lines were engineered using lentiviruses followed by antibiotic selection, or using the PiggyBac transposase system. […] The next day, the cells were co-transfected using Lipofectamine 2000 with three plasmids, pLVX-M-PURO (Addgene plasmid #125839) containing the gene of interest, the TEVP-activatable Citrine reporter for instance, psPAX2 (Addgene plasmid #12260), and pCMV-VSV-G (Addgene plasmid #8454). We kept the mass ratio of the three plasmids at 9:9:2 (450 ng:450 ng:100 ng). In some experiments involving cells stably expressing two or more transgenes, the lentiviruses were generated using multiple pLVX-M-PURO plasmids carrying different genes of interest. An alternative ratio of pLVX-M-PURO:psPAX2:pCMV-VSV-G was 2:2:1 (2.4 μg:2.4 μg:1.2 μg), which was used to generate lentiviruses for stable integration of IL-1β and IL-18 genes. […] The RasGC line, or HEK293 cells stably expressing human H-Ras G12V mutant along with a Cerulean fluorescence marker, was generated using the PiggyBac method. […] One week later, the cells were sorted based on Cerulean fluorescence to obtain the final RasGC line. […]

[2] = Engineered Casp3 variants without input protease and with Ras sensor protease; settings: without an input protease
Protocol: In this experiment, we tested the wild-type TEVP activatable Casp3 protein against the engineered Casp3 variants (v2.1 and v2.2) as described above. Each Casp3 variant was tested without an input protease and with a Ras sensor protease.

| Molecule | killing specificity, Annexin staining [1] | background (TEVP-independent) cell death / Casp3 activation [2] | background (TEVP-independent) cell death / Casp3 activation ([2]; listed as v2.1) | background (TEVP-independent) cell death / Casp3 activation ([2]; listed as v2.2) |
| --- | --- | --- | --- | --- |
| B1 | triggered apoptosis predominantly in double-positive cells | – | – | – |
| B2 | caused apoptosis in single-positive and double-positive cells, sparing only double-negative cells | – | – | – |
| B3 | restricted apoptosis to the corresponding cells | – | – | – |
| B4 | – | making TEVP-independent Casp3 activation less likely | reduced to statistically non-significant amounts | – |
| B5 | – | background Casp3 activation is reduced | – | reduced to statistically non-significant amounts |
